Reference: patent EP1876240B1
Residue numbers refer to the chain shown, from its start.

B1: F1232-37-2 (antibody, V domains shown)
VH: VQLQQSGPELVRPGESVKISCKGSGYTFTDYAIHWVKLSHAKSLEWIGVISIYYDDTNYNQKFKGKATMTVDKSSSTAYLELARLTSEDSAIYYCARRRDSSGPYAMDYWGQGTSVTVSS
VL: DIVLTQSPASLAVSLGQRATISCRASESVDSYGNSFMHWYQQKPGQPPKLLIYRASNLESGIPARFSGSGSRTDFTLTINPVEADDVATYYCQQSNEDPYTFGGGTKLEIKR
B2: F1249-24-1 (antibody, V domains shown)
VH: QVQLQQSGAELVRPGVSVKISCKGSGYTFTDYAMHWVKQSHAKSLEWIGVISTYYGDTSYNQKFKGKATMTVDKSSSTAYMELARLTSEDSAIYYCARAEDYDPWFAYWGQGTLVTVSA
VL: B1 VL with N96D, Y100L, G104A, I110L
B3: F1249-30-1 (antibody, V domains shown)
VH: B2 VH with T69A, E89D
VL: B1 VL with N96D, Y100L, G104A, I110L
B4: F1249-20-1 (antibody, V domains shown)
VH: B2 VH
VL: B1 VL with H38Y, N96D, Y100L, G104A, I110L
B5: F1257-3-1 (antibody, V domains shown)
VH: QVTLKESGPGMLQPSKTLSLTCSFSGFSLSTSGMVVSWIRQPSGKSLEWLAAIDWDGDKYYNPSLKSRLTVSKDTSNTQVFLKISSVDIADTATYYCARTPYYGYKEAYYFDYWGQGVKVTVSS
VL: DIQMTQSPASLSASLEEIVTITCKASRAIDDYLSWYQQKPGKSPQLLIYDATSLADGVPSRFSGSRSGTQYSLKISRPQVDDSGIYYCLQSYSTPWTFGGGTKLDLKR
B6: F1249-18-2 (antibody, V domains shown)
VH: QVQLQQPGAELVKPGASVKLSCKASGYTFTSYWMHWLKQRPGQGLEWIGMIHPNSDITNYNEKFKNKATLTVDKSSSTAYMQLSSLTSEDSAVYYCARSGDYYAMDYWGQGTSVTVSS
VL: SIVMTQTPKFLLVSAGDRVTITCKASQSVSNDVAWYQQKPGQSPKLLIYYASNRYTGVPDRFTGSGYGTDFTFTISTVQAEDLAVYFCQQDYSSPPTFGGGTKLEIKR
B7: F1245-4-1 (antibody, V domains shown)
VH: QVQLQQPGAELVKPGASVKLSCKASGCTFTSYWMHWVKQRPGQGLEWIGMIHPNSDNTNYNEKFKSKATLTVDKSSSTAYMHLSSLTSEDSAVYYCATHYYDYVDYWGQGTTLTVSS
VL: B6 VL with S1N, P96W
B8: F1232-37-2 Fab (Fab, V domains shown)
VH: B1 VH
VL: B1 VL
B9: F1251-1-1 (antibody, V domains shown)
VH: QVNLLQSGAALVKPGASVKLSCKASGYTFTDYYIHWVKQSHGKSLEWIGYINPNSGYTNYNEKFKSKATLTVDKSTNTAYMELSRLTSEDSATYYCTRCNSGYGDWFAYWGQGTLLTVSS
VL: DIQMTQSPPVLSASVGDRVTLSCKASQNINKNLDWYQQKHGEAPKLLIYYTNNLQTDIPSRFSGSGSGTDYTLTISSLQPEDVATFYCYQYNSGPGTFGAGTKLELKR
B10: F1245-7-1 (antibody, V domains shown)
VH: QVQLQQPGAELVKPGASVKLSCKASGYTFTSYWMHWVKQRPGQGLEWIGMIHPNSGSTNYNEKFKSKATLTVDKSSSTAYMQLSSLTSEDSAVYYCASPVTAVVEYYFDYWGQGTTLTVSS
VL: SIVMTQTPKFLLVSAGDRVTITCKASQSVSNDVAWYQQKPGQSPKLLIYYASNRYTGVPDRFTGSGYGTDFTFTISTVQAEDLAVYFCQQDYSSLTFGSGTKLEIKR
B11: F1246-1-1 (antibody, V domains shown)
VH: EVQLVESGGDLVKPGGSLKLSCAASGFTFSSYGMSWVRQTPDKRLEWVATISNGGTYTYYPDSVKGRFTISRDNAKNTLYLQMSSLKSDDTAMYYCGRLRDYYAMDYWGQGTSVTVSS
VL: B1 VL with Y100W
B12: F1245-6-2 (antibody, V domains shown)
VH: QVQLQQPGAELVKPGASVKLSCKASGYTFTSYWMHWVKQRPGQGLEWIGMIHPNSGSTNYNEKFKSKATLTVDKSSSTAYMQLSSLTSEDSAVYYCARGGVTPVAYWGQGTLVTVSA
VL: SIVMTQTPKFLLVSAGDRVTITCKASQSVSNDVAWYQQKPGQSPKLLIYYASNRYTGVPYRFTGSGYGTDFTFTISTVQAEDLAVYFCQQDYSSPWTFGGGTKLEIK
B13: F1249-5-1 (antibody, V domains shown)
VH: B6 VH with D73A, S99L
VL: B6 VL with A34T
B14: F1245-5-1 (antibody, V domains shown)
VH: B12 VH with T30I, N59H
VL: B6 VL with P96W

target: rat GPVI-human Fc (rGPVI-hFc) (rat; mouse); test: ELISA on immobilized antigen; control

Binder | absorbance (ELISA)
B1 | 0.137

target: human GPVI extracellular region-human Fc fusion protein (hGPVI-hFc) (human); test: ELISA on immobilised hGPVI-hFc; +++ absorbance more than 2.0
Sequence (chain, as listed by the source limits assumed): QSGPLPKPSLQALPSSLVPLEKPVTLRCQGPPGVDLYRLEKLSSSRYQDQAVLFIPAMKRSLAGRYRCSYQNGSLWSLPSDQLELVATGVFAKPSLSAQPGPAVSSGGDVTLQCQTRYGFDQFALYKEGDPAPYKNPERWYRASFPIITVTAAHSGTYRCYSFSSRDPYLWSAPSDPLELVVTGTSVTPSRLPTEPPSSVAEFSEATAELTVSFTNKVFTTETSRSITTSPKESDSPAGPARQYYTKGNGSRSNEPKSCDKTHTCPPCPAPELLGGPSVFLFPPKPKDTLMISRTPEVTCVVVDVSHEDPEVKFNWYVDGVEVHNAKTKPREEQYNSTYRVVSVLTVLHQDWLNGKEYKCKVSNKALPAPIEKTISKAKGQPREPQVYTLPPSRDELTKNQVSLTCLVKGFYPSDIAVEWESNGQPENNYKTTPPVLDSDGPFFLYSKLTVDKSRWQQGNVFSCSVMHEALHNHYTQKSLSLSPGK

Binder | absorbance
B2 | > 2 od
B3 | > 2 od
B4 | > 2 od
B5 | > 2 od
B6 | > 2 od
B7 | > 2 od

target: human GPVI extracellular region-human Fc fusion protein (hGPVI-hFc) (human); test: SPR (BIACORE 3000), hGPVI-hFc on CM5 chip, 0-800 nM, 1:1 binding fit

Binder | dissociation constant relative to whole antibody (defined as one) (relative to KD of whole F1232-37-2)
B8 | 0.6

target: human GPVI extracellular region-human Fc fusion protein (hGPVI-hFc) (human); test: ELISA on immobilised hGPVI-hFc; + absorbance 0.5 to 1.0

Binder | absorbance
B9 | 0.5 to 1 od

target: human GPVI extracellular region-human Fc fusion protein (hGPVI-hFc) (human); test: SPR (BIACORE3000) as in Example 5

Binder | KD (Relative value) against F1232-37-2 (relative to KD of F1232-37-2)
B9 | 7.9
B10 | 0.00293
B11 | 0.884
B2 | 0.00821
B3 | 0.347
B4 | 0.00205
B12 | 0.122
B5 | 0.00298
B6 | 0.00103
B7 | 0.00427
B13 | 0.00285
B14 | 1.43

target: human GPVI extracellular region-human Fc fusion protein (hGPVI-hFc) (human); test: ELISA on immobilised hGPVI-hFc; ++ absorbance 1.0 to 2.0

Binder | absorbance
B10 | 1 to 2 od
B11 | 1 to 2 od
B12 | 1 to 2 od
B13 | 1 to 2 od
B14 | 1 to 2 od
